Results from patent publication US8124742.
Like-named read-outs stand apart in the source and are kept apart here.

Key:
[1] = target: T1, human Rh(D) antigen on Rh(D)-positive red blood cells (human, UniProt Q02161 2-417); test: agglutination, anti-M13
T1 construct: whole, on cells; also called wt; wild type Rh(D)
T1 sequence (looked up): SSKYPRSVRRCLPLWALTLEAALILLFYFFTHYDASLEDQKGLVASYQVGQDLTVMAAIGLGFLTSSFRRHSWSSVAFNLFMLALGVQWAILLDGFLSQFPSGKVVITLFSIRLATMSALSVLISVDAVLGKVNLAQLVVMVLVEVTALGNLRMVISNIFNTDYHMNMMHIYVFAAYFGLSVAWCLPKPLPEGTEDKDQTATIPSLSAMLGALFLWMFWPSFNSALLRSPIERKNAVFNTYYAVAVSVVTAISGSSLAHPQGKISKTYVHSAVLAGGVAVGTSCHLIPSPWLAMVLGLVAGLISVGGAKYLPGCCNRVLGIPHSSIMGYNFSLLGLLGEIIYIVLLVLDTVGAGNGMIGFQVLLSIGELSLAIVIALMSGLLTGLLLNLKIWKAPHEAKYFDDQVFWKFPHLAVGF
Description: The binding of anti-Rh(D) Fab/phage or soluble Fab molecules to normal or partial Rh(D) antigens was assessed by indirect agglutination assays as described (Siegel et al., 1994, Blood 83:2334; Siegel et al., 1997, J. Immunol. Meth. 206: 73). […] Following a one-hour incubation at 37° C., the RBCs were washed 3 times with 2 ml of cold PBS to remove unbound antibody. The resulting RBC pellets were resuspended in 100 μl of a 10 μg/ml solution of sheep anti-M13 antibody (5 Prime-3 Prime, Boulder, Colo.) for Fab/phage experiments or goat anti-human κ or λ light chain antibody (Tago, Burlingame, Calif.) for $\gamma_1\kappa$ or $\gamma_1\lambda$ soluble Fab experiments, respectively. The RBC suspensions were transferred to the round-bottomed wells of a 96-well microplate and left undisturbed for 2 hours. Negative reactions show sharp ~2 millimeter diameter RBC spots whereas the RBCs in agglutinated wells form a thin carpet coating the entire floor of the well (Siegel et al., 1997, J. Immunol. Meth. 206:73). Agglutination titers for recombinant antibodies were determined by performing serial 2-fold dilutions in 1% BSA/PBS.
Fifty-six randomly chosen colonies were selected, and monoclonal Fab/phage preparations were separately produced from each of these individual colonies, using the methods described herein in Example 1. Rh(D) specificity was determined by indirect agglutination using anti-M13 antibody, as described herein in Examples 1 and 2.

[2] = target: T1, human Rh(D) antigen on Rh(D)-positive …; test: agglutination, anti-M13; remark: listed apart in the source

Row | Binder | binding result [1] | binding result [2]
1 | SH55 (Fab, V domains shown, Fab on M13 phage) VH: EVQLLESGGGVVQPGRSLRLSCVVSGFTFNNYGMHWVRQAPGKGLEWVAVIWFDGSNKYYADSVKGRFTISRDNSKNTLYLQMNSLRAEDTAVYYCARENQIKLWSRYLYYFDYWGQGTLVTVSS VL: AELTQPPSASGTPGQRVTISCSGSSSNIGSKYVYWYQQLPGTAPKLLIYSNNQRPSGVPDRFSAFKSGTSASLAITGLQAEDEANYYCQSYDSGLSGWVFGGGTKLTVL | binds | –
2 | SH37 (Fab, V domains shown, Fab on M13 phage) VH: EVQLLESGGGVVQPGRSLRLSCEASKFTLYNYGMHWVRQAPGKGLEWVAFIWFDGSNKYYEDSVKGRFTVSRDNSKNTLYLQMNSLRAEDTAVYYCARELSKKVALSRYYYYMDVWGQGTTVTVSS VL: AELQDPVVSVALGQTVKITCQGDSLRKYYASWYQQKPGQAPVLVFYARNSRPSGIPDRFSGSNSGTTASLTIAGARAEDEADYYCHSRDSNGHHRVFGGGTKLTVL | binds | –
3 | SH49 (Fab, V domains shown, Fab on M13 phage) VH: EVQLLESGGGVVQPGRSLRLACAASGFSFRSYGMHWVRQAPGRGLEWVAFTWFDGSNKYYVDSVKGRFTISRDNSKNTLYLEMNSLRVDDTAVYYCAREASMLRGISRYYYAMDVWGPGTTVTVSS VL: not shown | binds | –
4 | SH51 (Fab, V domains shown, Fab on M13 phage) VH: EVQLLESGGGVVQPGRSLRLACAASGFSFRSYGMHWVRQAPGRGLEWVAFTWFDGSNKYYVDSVKGRFTISRDNSKNTLYLEMNSLRVDDTAVYYCAREASMLRGISRYYYAMDVWGPGTTVTVSS VL: AELTQSPSFLSASVGDRVTITCRASQGIRSYLAWYQQKPGKAPKLLIYAASTLQSGVPSRFSGSGSGTEFTLTISSLQPEDFATYYCQQLNNYPPFTFGPGTKVDIKR | binds | –
5 | E1/M2 (Fab, V domains shown, Fab on M13 phage; heavy chain E1 with λ light chain M2; also called E01/M02) VH: EVQLLESGGGLVKPGGSLRLSCAASGFTFSSYSMHWVRQAPGKGLEWVSSISNSNTYIYYADAVKGRFTISRDNAKNSLYLQMNSLRAEDTAVYYCARDSRYSNFLRWVRSDGMDVWGQGTTVIVSS VL: not shown | – | binds
6 | E1/M3 (Fab, V domains shown, used both as Fab on M13 phage and as soluble γ1λ Fab; also called E01/M03; anti-epD3) VH: EVQLLESGGGLVKPGGSLRLSCAASGFTFSSYSMHWVRQAPGKGLEWVSSISNSNTYIYYADAVKGRFTISRDNAKNSLYLQMNSLRAEDTAVYYCARDSRYSNFLRWVRSDGMDVWGQGTTVIVSS VL: AELTQPPSASGTPGQRVTISCSGSSSNIGSNYVYWYQQLPGTAPKLLIYRNNQRPSGVPDRFSGSKSGTSASLAISGLRSEAEADYYCAAWDDSLSAVVFGGGTKLTVLL | – | binds
7 | E1/L4 (Fab, V domains shown, Fab on M13 phage; also called E1 with L4) VH: EVQLLESGGGLVKPGGSLRLSCAASGFTFSSYSMHWVRQAPGKGLEWVSSISNSNTYIYYADAVKGRFTISRDNAKNSLYLQMNSLRAEDTAVYYCARDSRYSNFLRWVRSDGMDVWGQGTTVIVSS VL: AELTQPPSASGTPGQRVSISCSGSSSNIGSNTVNWYQQLPGTAPKLLISTNNQGPSGVPDRFSGSKSGTSSSLAISGLRSEAEDDYYCAAWDDTLNGVVFGGGTKLTVL | – | binds
8 | E1/L3 (Fab, V domains shown, Fab on M13 phage; also called E1 with L3) VH: EVQLLESGGGLVKPGGSLRLSCAASGFTFSSYSMHWVRQAPGKGLEWVSSISNSNTYIYYADAVKGRFTISRDNAKNSLYLQMNSLRAEDTAVYYCARDSRYSNFLRWVRSDGMDVWGQGTTVIVSS VL: AELTQPPSASGTPGQRVTISCSGSSSNIGNNHVSWYQQLPGMAPKLLIYSNGQRPSGVPDRFSGSKSGTSASLAISGLQSEDEADYYCAAWHDSLYGPVFGGGTKLTVL | – | binds
9 | SH46 (Fab, V domains shown, Fab on M13 phage) VH: VQLLEESGGGVVQPGRSLRLSCAASGFTFSSYGMHWVRQAPGRGLEWVALIWYDGGNKEYADSVKGRFSISRDNSKNTLYLQVNSLRADDTAVYYCARDQRAAAGIFYYSRMDVWGQGTTVTVSS VL: AELTQSPSSLSASVGDRVTITCRASQYISSYLNWYQQKPGKAPNLLIYAASSLQSGVPSRFSGSGSGTDFTLTISSLQPEDFATYYCQQTYSSPSTFGPGTKVDIKR | binds | –
10 | SH54 (Fab, V domains shown, Fab on M13 phage) VH: EVQLLESGGGVVQPGRSLRLSCAASGFTFSRNGMHWVRQAPGKGLEWVAFIWFDGSNKYYADSVKGRFTISRDNSKNTLYLQMNSLRADDTAVYYCAREEALFRGLTRWSYGMDVWGQGTTVSVSS VL: AELTQSPSSMSASVGDRVTITCRASQSIGTYLNWYQQKPGKAPKLLIYAASSLQSGVPSRFSGSGSGTDFTLTISSLQPEDFATYYCQQSYSTPWTFGQGTKVEIKR | binds | –
11 | SH48 (Fab, V domains shown, Fab on M13 phage) VH: EVQLLESGGGVVQPGRSLRLSCAASGFSFSSYGMHWVRQAPGKGLEWVAVISYDGTNKYFADSVKGRFTISRDNSKKTLYLQMTSLRPEDTAVYFCANLRGEVTRRASVPLDIWGQGTMVTVSS VL: AELTQSPSSLSASVGDRVTITCRASQYISSYLNWYQQKPGKAPNLLIYAASSLQSGVPSRFSGSGSGTDFTLTISSLQPEDFATYYCQQTYSSPSTFGPGTKVDIKR | binds | –
12 | SH47 (Fab, V domains shown, Fab on M13 phage) VH: EVQLLESGGGVVQPGRSLRLSCAASGFSFSNYAMHWVRQAPGKGLEWVAVTSFDGSIKDYADSVKGRFTISRDNSKNTLYLQMNSLRDEDTAVYYCARERGMIVVVRRRNAFDIWGQGTMVTVSS VL: AELTQSPSSLSASVGDRVTITCRASQSISNYLNWYQQKPGKAPNLLIYAASSLQSGVPSRFSGSGSGTDFTLTISSLQPEDFATYYCQQSYSYPRTFGQGTKVEIRR | binds | –
13 | SH39 (Fab, V domains shown, Fab on M13 phage) VH: VQLLEQSGGGVVQPGRSLRLSCAASGFTFSSYGMHWVRQAPGKGLEWVAVIWFDGSNKEYADSVKGRFTISRDNSKNTLYLQMNSLRAEDTAVYYCAREEVVRGVILWSRKFDYWGQGTLVTVSS VL: AELTQSPSSLSASVGDRVTITCRASQTIGRYLNWYQQRPGKAPKLLVYAVSSLQSGAPSRFSGSGSGTHFTLTITSLQPEDFATYFCQQSYSSPFTFGQGTKVEIKR | binds | –
14 | SH41 (Fab, V domains shown, Fab on M13 phage) VH: EVQLLESGGGVVQPGRSLRLSCAASGFTFSTYGMHWVRQAPGKGLEWVAVIWFDGSNKEYADSVKGRFTISRDNSKNTLYLQMNSLRAEDTAVYYCAREEVVRGVILWSRKFDYWGQGTLVTVSS VL: AELTQSPSSLSASVGDRVTITCRASQNIRRSLNWYQHKPGRAPRLLIYAASTLQSGVPSRFRGSGSGTDFTLTINSLQPADFATYYCQQSSNTPWTFGHGTKVEIKR | binds | –
15 | SH53 (Fab, V domains shown, Fab on M13 phage) VH: EVQLLESGGGGVQPGRSLRLSCAASGFTFNSYAMYWVRQPPGKGLEWVAAIWYDGSNKEYADFVKGRFTISRDNSKNTLSLQMNSLRDEDTAVYYCAREANLLRGWSRYYYGMDVWGQGTTVTVSS VL: AELQDPVVSVALGQTVRITCQGDGLRSYYASWYQQKPGQAPKLVMYGRNNRPSGIPGRFSGSSSGQTAALTITGTQAEDEADYYCQSRATSGNPVVFGGGTKLTVL | binds | –
16 | SH44 (Fab, V domains shown, Fab on M13 phage) VH: EVQLLESGGGVAQPGRSLRLSCVASGFSLRSYGMHWVRQAPGKGLEWVADIWFDGSNKDYADSVKGRFTISRDNSKNTLYLQMNSLRAEDTAVYYCARDWRVRAFSSGWLSAFDIWGQGTMVTVSS VL: AELTQSPSSLSASVGDRVIITCRASQTIPRFLNWYQQKPGKAPVLLIHSISSLQSGVPSRFSASGSGTEFTLTISSLQPEDFATYYCQQSYSNLSFGPGTTVDIRR | binds | –
